Source: patent US20050282739A1 (PALATIN TECHNOLOGIES, published 2005)
Square brackets hold non-standard residues; d marks the D form. Ends that are not written are not given here. Nle = CCCC[C@H](N)C(=O)O

B1: α-MSH parent polypeptide Ac-Ser-Tyr-Ser-Met-Glu-His-Phe-Arg-Trp-Gly-Lys-Pro-Val-NH2 (peptide)
peptide: Ac-SYSMEHFRWGKPV-NH2
notes: not complexed to Re; also called α-MSH analog
B2: metallopeptide 3-6 (peptide)
peptide: YV[Nle]GH[dF]CRWDRF-NH2
modifications: not fully specified (bridges); printed as Tyr-Val-Nle-Gly-His-D-Phe-Cys-Arg-Trp-Asp-Arg-Phe-NH2; also: bridge at 7 via Re(V)=O, other end not in the chain
B3: metallopeptide 3-3 (peptide)
peptide: YV[Nle]GH[dF]RWDCRF-NH2
modifications: not fully specified (bridges); printed as Tyr-Val-Nle-Gly-His-D-Phe-Arg-Trp-Asp-Cys-Arg-Phe-NH2; also: oxorhenium(V) N3S1 chelate (backbone N of W8, D9, C10 and C10 S)
B4: metallopeptide 3-9 (peptide)
peptide: YV[Nle]GCH[dF]RWDRF-NH2
modifications: also: oxorhenium(V) N3S1 chelate: C5 SG + backbone N of X3, G4, C5, bridge at 5 via Re(V)=O, other end not in the chain
B5: metallopeptide 3-2 (peptide)
peptide: YV[Nle]GH[dF]RWDRCF-NH2
modifications: not fully specified (bridges); printed as Tyr-Val-Nle-Gly-His-D-Phe-Arg-Trp-Asp-Arg-Cys-Phe-NH2; also: oxorhenium(V) N3S1 chelate (backbone N of D9, R10, C11 and C11 S)
B6: metallopeptide 3-4 (peptide)
peptide: YV[Nle]GH[dF]RWCDRF-NH2
modifications: not fully specified (bridges); printed as Tyr-Val-Nle-Gly-His-D-Phe-Arg-Trp-Cys-Asp-Arg-Phe-NH2; also: oxorhenium(V) N3S1 chelate (backbone N of R7, W8, C9 and C9 S)
B7: metallopeptide 3-5 (peptide)
peptide: YV[Nle]GH[dF]RCWDRF-NH2
modifications: not fully specified (bridges); printed as Tyr-Val-Nle-Gly-His-D-Phe-Arg-Cys-Trp-Asp-Arg-Phe-NH2; also: bridge at 8 via Re(V)=O, other end not in the chain

Biological target: T1, melanocortin-1 receptor (MC1-R) of B-16 mouse melanoma cells (mouse, UniProt Q01727 1-315)
T1 construct: whole, on cells; membranes prepared from the cells were used; also called Melanocortin Receptor 1
T1 sequence (Q01727 whole entry): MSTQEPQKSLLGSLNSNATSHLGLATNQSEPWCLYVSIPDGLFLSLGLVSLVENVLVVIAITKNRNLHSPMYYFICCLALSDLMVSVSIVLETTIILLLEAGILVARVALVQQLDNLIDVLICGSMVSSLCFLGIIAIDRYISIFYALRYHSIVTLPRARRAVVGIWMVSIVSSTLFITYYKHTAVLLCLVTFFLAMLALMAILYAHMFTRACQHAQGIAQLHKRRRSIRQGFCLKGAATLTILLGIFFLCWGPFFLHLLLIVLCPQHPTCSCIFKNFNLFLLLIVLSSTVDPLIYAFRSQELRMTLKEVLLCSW
Assay: 125I-NDP-α-MSH competition, B-16 membranes
Description: (§1) The competitive inhibition binding assay was conducted using membranes prepared from hMC3-R, hMC4-R, hMC5-R, and B-16 mouse melanoma cells (containing MC1-R) using 0.4 nM ¹²⁵I-NDP-alpha-MSH (New England Nuclear, Boston, Mass., USA) in 50 mM HEPES buffer containing 1 mM MgCl₂, 2 mM CaCl₂, and 5 mM KCl, at pH 7.2. […] Incubation was for 90 minutes at room temperature, after which the assay mixture was filtered and the membranes washed three times with ice cold buffer. The filter was dried and counted in a gamma counter for remaining radioactivity bound to the membranes. 100% specific binding was defined as the difference in radioactivity (cpm) bound to cell membranes in the absence and presence of 1 μM α-MSH. […] Each assay was conducted in triplicate and the actual mean valves are described.

% Inhibition at 1 µM	Binder
74%	Ac-SYS[Nle]ECHFRWGKPV-NH2 (also: oxorhenium(V) N3S1 chelate at Cys6) [metallopeptide 1-9]
99%	B1
95%	Ac-SYSC[Nle]EHFRWGKPV-NH2 (also: oxorhenium(V) N3S1 chelate at Cys4) [metallopeptide 1-11]
57%	Ac-SYS[Nle]EHFRWCGKPV-NH2 (also: oxorhenium(V) N3S1 chelate at Cys10) [metallopeptide 1-5]
87%	Ac-SYS[Nle]EHFRWGKCPV-NH2 (also: oxorhenium(V) N3S1 chelate at Cys12) [metallopeptide 1-3]
95%	Ac-SYS[Nle]EHFRWGKGVC-NH2 (not fully specified; also: oxorhenium(V) N3S1 chelate at Cys14) [metallopeptide 1-1]
96%	Ac-SYCS[Nle]EHFRWGKPV-NH2 (also: oxorhenium(V) N3S1 chelate at Cys3) [metallopeptide 1-12]
29%	Ac-SYS[Nle]EHFRCWGKPV-NH2 (also: oxorhenium(V) N3S1 chelate at Cys9) [metallopeptide 1-6]
42%	Ac-SYS[Nle]EHCFRWGKPV-NH2 (also: oxorhenium(V) N3S1 chelate at Cys7) [metallopeptide 1-8]
72%	Ac-SYS[Nle]CEHFRWGKPV-NH2 (also: oxorhenium(V) N3S1 chelate at Cys5) [metallopeptide 1-10]
72%	Ac-SYS[Nle]EHFRWGCKPV-NH2 (also: oxorhenium(V) N3S1 chelate at Cys11) [metallopeptide 1-4]
68%	Ac-SYS[Nle]EHFCRWGKPV-NH2 (also: oxorhenium(V) N3S1 chelate at Cys8) [metallopeptide 1-7]
87%	Ac-SYS[Nle]EHFRWGKGCV-NH2 (also: oxorhenium(V) N3S1 chelate at Cys13) [metallopeptide 1-2]

Biological target: T1, melanocortin-1 receptor (MC1-R) of B-16 …
Assay: 125I-NDP-α-MSH competition, B-16 membranes
Remark: another data set of the same source
Description: as §1
(§2) The methods and assays set forth in Example 1 were followed.

% Inhibition at 1 µM	Binder
54%	Ac-SYS[Nle]EHF[dC]RWGKPV-NH2 (also: oxorhenium(V) N3S1 chelate at D-Cys8) [metallopeptide 2-7]
46%	Ac-SYS[Nle]EHFR[dC]WGKPV-NH2 (also: oxorhenium(V) N3S1 chelate at D-Cys9) [metallopeptide 2-6]
99%	B1

Biological target: T1, melanocortin-1 receptor (MC1-R) of B-16 …
Assay: 125I-NDP-α-MSH competition, B-16 membranes
Remark: another data set of the same source
Description: as §1
(§3) The first unnumbered peptide in Table 3 is the parent polypeptide, which is a Nle³, D-Phe⁶ substituted γ-MSH analog specific for melanocortin receptors. The methods and assays set forth in Example 1 were followed.

% Inhibition at 1 µM	Binder
52%	B2
99%	B3
77%	B4
99%	B5
98%	B6
83%	B7
95%	YVXGHFRWDRFC (Nle 3 (X in letters); D-Phe 6; C-terminal amide; Re complexed at Cys 12) [metallopeptide 3-1]

Biological target: T2, human melanocortin-3 receptor (hMC3-R) (human, UniProt P41968 1-323)
T2 construct: whole, on cells; membranes prepared from hMC3-R cells were used; also called Melanocortin Receptor 3
T2 sequence (P41968 whole entry): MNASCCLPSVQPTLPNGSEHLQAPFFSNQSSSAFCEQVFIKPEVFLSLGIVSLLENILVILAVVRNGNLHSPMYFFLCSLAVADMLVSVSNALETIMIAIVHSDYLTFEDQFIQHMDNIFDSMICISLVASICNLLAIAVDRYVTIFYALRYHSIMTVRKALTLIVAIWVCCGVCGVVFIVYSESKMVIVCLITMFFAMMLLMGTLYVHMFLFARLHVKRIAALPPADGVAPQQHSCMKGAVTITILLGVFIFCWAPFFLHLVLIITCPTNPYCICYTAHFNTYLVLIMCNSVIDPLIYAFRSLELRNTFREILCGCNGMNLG
Assay: 125I-NDP-α-MSH competition, hMC3-R membranes
Description: as §1

% Inhibition at 1 µM	Binder
0%	Ac-SYS[Nle]ECHFRWGKPV-NH2 (also: oxorhenium(V) N3S1 chelate at Cys6) [metallopeptide 1-9]
18%	Ac-SYSC[Nle]EHFRWGKPV-NH2 (also: oxorhenium(V) N3S1 chelate at Cys4) [metallopeptide 1-11]
0%	Ac-SYS[Nle]EHFRWCGKPV-NH2 (also: oxorhenium(V) N3S1 chelate at Cys10) [metallopeptide 1-5]
0%	Ac-SYS[Nle]EHFRWGKCPV-NH2 (also: oxorhenium(V) N3S1 chelate at Cys12) [metallopeptide 1-3]
48%	Ac-SYS[Nle]EHFRWGKGVC-NH2 (not fully specified; also: oxorhenium(V) N3S1 chelate at Cys14) [metallopeptide 1-1]
15%	Ac-SYCS[Nle]EHFRWGKPV-NH2 (also: oxorhenium(V) N3S1 chelate at Cys3) [metallopeptide 1-12]
0%	Ac-SYS[Nle]EHFRCWGKPV-NH2 (also: oxorhenium(V) N3S1 chelate at Cys9) [metallopeptide 1-6]
0%	Ac-SYS[Nle]EHCFRWGKPV-NH2 (also: oxorhenium(V) N3S1 chelate at Cys7) [metallopeptide 1-8]
0%	Ac-SYS[Nle]CEHFRWGKPV-NH2 (also: oxorhenium(V) N3S1 chelate at Cys5) [metallopeptide 1-10]
0%	Ac-SYS[Nle]EHFRWGCKPV-NH2 (also: oxorhenium(V) N3S1 chelate at Cys11) [metallopeptide 1-4]
0%	Ac-SYS[Nle]EHFCRWGKPV-NH2 (also: oxorhenium(V) N3S1 chelate at Cys8) [metallopeptide 1-7]

Biological target: T3, human melanocortin-4 receptor (hMC4-R) (human, UniProt P32245 1-332)
T3 construct: whole, on cells; membranes prepared from hMC4-R cells were used; also called Melanocortin Receptor 4
T3 sequence (P32245 whole entry): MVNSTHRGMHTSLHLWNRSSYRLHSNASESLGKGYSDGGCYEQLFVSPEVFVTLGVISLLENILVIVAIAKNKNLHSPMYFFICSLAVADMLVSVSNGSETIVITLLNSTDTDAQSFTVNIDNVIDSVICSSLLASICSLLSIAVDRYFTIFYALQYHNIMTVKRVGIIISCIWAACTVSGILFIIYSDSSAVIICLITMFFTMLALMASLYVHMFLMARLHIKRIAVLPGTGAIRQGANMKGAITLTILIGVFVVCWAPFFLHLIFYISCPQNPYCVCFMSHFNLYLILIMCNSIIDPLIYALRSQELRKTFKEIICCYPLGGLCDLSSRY
Assay: 125I-NDP-α-MSH competition, hMC4-R membranes
Description: as §1

% Inhibition at 1 µM	Binder
21%	Ac-SYSC[Nle]EHFRWGKPV-NH2 (also: oxorhenium(V) N3S1 chelate at Cys4) [metallopeptide 1-11]
0%	Ac-SYS[Nle]EHFRWCGKPV-NH2 (also: oxorhenium(V) N3S1 chelate at Cys10) [metallopeptide 1-5]
0%	Ac-SYS[Nle]EHFRWGKCPV-NH2 (also: oxorhenium(V) N3S1 chelate at Cys12) [metallopeptide 1-3]
63%	Ac-SYS[Nle]EHFRWGKGVC-NH2 (not fully specified; also: oxorhenium(V) N3S1 chelate at Cys14) [metallopeptide 1-1]
26%	Ac-SYCS[Nle]EHFRWGKPV-NH2 (also: oxorhenium(V) N3S1 chelate at Cys3) [metallopeptide 1-12]
0%	Ac-SYS[Nle]EHFRCWGKPV-NH2 (also: oxorhenium(V) N3S1 chelate at Cys9) [metallopeptide 1-6]
0%	Ac-SYS[Nle]EHCFRWGKPV-NH2 (also: oxorhenium(V) N3S1 chelate at Cys7) [metallopeptide 1-8]
0%	Ac-SYS[Nle]EHFRWGCKPV-NH2 (also: oxorhenium(V) N3S1 chelate at Cys11) [metallopeptide 1-4]
0%	Ac-SYS[Nle]EHFCRWGKPV-NH2 (also: oxorhenium(V) N3S1 chelate at Cys8) [metallopeptide 1-7]
0%	Ac-SYS[Nle]EHFRWGKGCV-NH2 (also: oxorhenium(V) N3S1 chelate at Cys13) [metallopeptide 1-2]

Biological target: T4, human melanocortin-5 receptor (hMC5-R) (human, UniProt P33032 1-325)
T4 construct: whole, on cells; membranes prepared from hMC5-R cells were used; also called Melanocortin Receptor 5
T4 sequence (P33032 whole entry): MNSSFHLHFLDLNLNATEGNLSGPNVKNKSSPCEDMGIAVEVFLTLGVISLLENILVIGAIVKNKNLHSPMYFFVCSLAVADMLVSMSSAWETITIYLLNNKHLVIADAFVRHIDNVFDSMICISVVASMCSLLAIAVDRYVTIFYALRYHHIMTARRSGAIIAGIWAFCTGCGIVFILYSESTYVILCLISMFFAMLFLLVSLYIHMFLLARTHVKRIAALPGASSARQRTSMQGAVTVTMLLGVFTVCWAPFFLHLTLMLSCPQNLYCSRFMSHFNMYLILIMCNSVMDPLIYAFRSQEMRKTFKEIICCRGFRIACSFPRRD
Assay: 125I-NDP-α-MSH competition, hMC5-R membranes
Description: as §1

% Inhibition at 1 µM	Binder
6%	Ac-SYS[Nle]ECHFRWGKPV-NH2 (also: oxorhenium(V) N3S1 chelate at Cys6) [metallopeptide 1-9]
6%	Ac-SYSC[Nle]EHFRWGKPV-NH2 (also: oxorhenium(V) N3S1 chelate at Cys4) [metallopeptide 1-11]
0%	Ac-SYS[Nle]EHFRWCGKPV-NH2 (also: oxorhenium(V) N3S1 chelate at Cys10) [metallopeptide 1-5]
12%	Ac-SYS[Nle]EHFRWGKCPV-NH2 (also: oxorhenium(V) N3S1 chelate at Cys12) [metallopeptide 1-3]
68%	Ac-SYS[Nle]EHFRWGKGVC-NH2 (not fully specified; also: oxorhenium(V) N3S1 chelate at Cys14) [metallopeptide 1-1]
19%	Ac-SYCS[Nle]EHFRWGKPV-NH2 (also: oxorhenium(V) N3S1 chelate at Cys3) [metallopeptide 1-12]
0%	Ac-SYS[Nle]EHFRCWGKPV-NH2 (also: oxorhenium(V) N3S1 chelate at Cys9) [metallopeptide 1-6]
5%	Ac-SYS[Nle]CEHFRWGKPV-NH2 (also: oxorhenium(V) N3S1 chelate at Cys5) [metallopeptide 1-10]
0%	Ac-SYS[Nle]EHFCRWGKPV-NH2 (also: oxorhenium(V) N3S1 chelate at Cys8) [metallopeptide 1-7]
37%	Ac-SYS[Nle]EHFRWGKGCV-NH2 (also: oxorhenium(V) N3S1 chelate at Cys13) [metallopeptide 1-2]

Biological target: T2, human melanocortin-3 receptor (hMC3-R)
Assay: 125I-NDP-α-MSH competition, hMC3-R membranes
Remark: another data set of the same source
Description: as §1, §2

% Inhibition at 1 µM	Binder
0%	Ac-SYS[Nle]EHF[dC]RWGKPV-NH2 (also: oxorhenium(V) N3S1 chelate at D-Cys8) [metallopeptide 2-7]
2%	Ac-SYS[Nle]EHFR[dC]WGKPV-NH2 (also: oxorhenium(V) N3S1 chelate at D-Cys9) [metallopeptide 2-6]

Biological target: T3, human melanocortin-4 receptor (hMC4-R)
Assay: 125I-NDP-α-MSH competition, hMC4-R membranes
Remark: another data set of the same source
Description: as §1, §2

% Inhibition at 1 µM	Binder
6%	Ac-SYS[Nle]EHF[dC]RWGKPV-NH2 (also: oxorhenium(V) N3S1 chelate at D-Cys8) [metallopeptide 2-7]
6%	Ac-SYS[Nle]EHFR[dC]WGKPV-NH2 (also: oxorhenium(V) N3S1 chelate at D-Cys9) [metallopeptide 2-6]

Biological target: T4, human melanocortin-5 receptor (hMC5-R)
Assay: 125I-NDP-α-MSH competition, hMC5-R membranes
Remark: another data set of the same source
Description: as §1, §2

% Inhibition at 1 µM	Binder
0%	Ac-SYS[Nle]EHF[dC]RWGKPV-NH2 (also: oxorhenium(V) N3S1 chelate at D-Cys8) [metallopeptide 2-7]
6%	Ac-SYS[Nle]EHFR[dC]WGKPV-NH2 (also: oxorhenium(V) N3S1 chelate at D-Cys9) [metallopeptide 2-6]

Biological target: T2, human melanocortin-3 receptor (hMC3-R)
Assay: 125I-NDP-α-MSH competition, hMC3-R membranes
Remark: another data set of the same source
Description: as §1, §3

% Inhibition at 1 µM	Binder
20%	B2
95%	B3
69%	B4
91%	B5
88%	B6
45%	B7
96%	YVXGHFRWDRFC (Nle 3 (X in letters); D-Phe 6; C-terminal amide; Re complexed at Cys 12) [metallopeptide 3-1]

Biological target: T3, human melanocortin-4 receptor (hMC4-R)
Assay: 125I-NDP-α-MSH competition, hMC4-R membranes
Remark: another data set of the same source
Description: as §1, §3

% Inhibition at 1 µM	Binder
31%	B2
99%	B3
55%	B4
89%	B5
94%	B6
33%	B7
98%	YVXGHFRWDRFC (Nle 3 (X in letters); D-Phe 6; C-terminal amide; Re complexed at Cys 12) [metallopeptide 3-1]

Biological target: T4, human melanocortin-5 receptor (hMC5-R)
Assay: 125I-NDP-α-MSH competition, hMC5-R membranes
Remark: another data set of the same source
Description: as §1, §3

% Inhibition at 1 µM	Binder
31%	B2
99%	B3
67%	B4
100%	B5
100%	B6
81%	B7
102%	YVXGHFRWDRFC (Nle 3 (X in letters); D-Phe 6; C-terminal amide; Re complexed at Cys 12) [metallopeptide 3-1]
